Test results from article PMC3838848 (BioMed Research International, 2013).

Target: the molecule itself
Assay: SEC-MALS; 500 uL sample at 1 mg/mL on Superdex 75 10/30 in 50 mM Tris-HCl, 0.15 M NaCl, pH 8.0, online triple-angle static light scattering (MiniDAWN Treos)

B1: POZ/BTB domain of KCTD6 (domain or fragment, human, UniProt Q8NC69 10-110, looked up)
chain: MTDPVTLNVGGHLYTTSLTTLTRYPDSMLGAMFGGDFPTARDPQGNYFIDRDGPLFRYVLNFLRTSELTLPLDFKEFDLLRKEADFYQIEPLIQCLNDPKP
notes: KCTD6, human, POZ/BTB domain, residues 10-110 of the protein of 237 residues (UniProt Q8NC69); cDNA NM_153331; also called KCTD6BTB; source: E. coli BL21(DE3) Star, purified
Question: Which “stoichiometry N” value does the source give for B1 here?
Answer: 4
